Key:
[1] = target: rat thrombin (rat)
[2] = target: human thrombin (human)

Substance: synthetic peptide containing NEP-truncated rat FpA and the first four residues of the main α-chain
- fold reduction of kcat/KM of cleavage by rat thrombin, truncated rat FpA peptide against the full-length rat FpA peptide [1]: 5.7 fold

Substance: synthetic peptide containing NEP-truncated human FpA and the first four residues of the main α-chain
- KM of cleavage of the peptide by thrombin (fluorescence polarisation cleavage assay, Michaelis-Menten fit) [2]: 630 µM
- fold reduction of kcat/KM of cleavage by thrombin, truncated FpA peptide against the full length peptide [2]: 490 fold
- kcat of cleavage of the peptide by thrombin (fluorescence polarisation cleavage assay, Michaelis-Menten fit) [2]: 0.25 s⁻¹

Substance: synthetic peptide containing full-length human FpA and the first four residues of the main α-chain
- KM of cleavage of the peptide by thrombin (fluorescence polarisation cleavage assay, Michaelis-Menten fit) [2]: 51 µM
- kcat of cleavage of the peptide by thrombin (fluorescence polarisation cleavage assay, Michaelis-Menten fit) [2]: 9.1 s⁻¹
- kcat/KM of cleavage of the peptide by thrombin (fluorescence polarisation cleavage assay, Michaelis-Menten fit) [2]: 0.18 µM⁻¹ s⁻¹

Source: paper PMC4954676
